From patent US20160304856A1 (AVANTGEN, published 2016)

Molecular target: T1, Prostate-Specific Antigen (PSA) (human, UniProt P07288 25-261)
T1 construct: Used biotinylated or PE-labelled in flow cytometry and coated on plates in ELISA; also called PSA antigen
Test: method and antibody format not stated

T1 sequence (P07288 25-261 limits assumed): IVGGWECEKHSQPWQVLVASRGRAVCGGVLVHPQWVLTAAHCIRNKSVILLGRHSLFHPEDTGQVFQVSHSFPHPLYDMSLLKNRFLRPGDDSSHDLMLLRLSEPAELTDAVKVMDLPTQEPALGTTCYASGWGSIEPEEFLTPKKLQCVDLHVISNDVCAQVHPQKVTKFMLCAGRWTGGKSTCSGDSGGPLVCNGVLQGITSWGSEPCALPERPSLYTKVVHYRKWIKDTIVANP

B1: novel anti-PSA antibody (antibody, V domains shown)
VH: EVQLLESGGGLVQPGGSLRLSCAASGFTVSNYAMSWVRQAPGKGLEWVGDIYPTSGYTDYADSVKGRFTISRDNSKNTLYLQMNSLRAEDTAVYYCARWGYDYKYVASEGSWLFDYWGQGTLVTVSS
VL: DIQMTQSPSSLSASVGDRVTITCRASQVSSTSLNWYQQKPGKAPKLLIYGASNLASGVPSRFSGSGSGTDFTLTISSLQPEDFATYYCQQYGHPPYTFGQGTKVEIK
notes: Identified from a single chain library
Kd: 80 pM
